Tests used:
[1] = system: substrate protein S2-35 (two Smt3 domains separated by a 35 amino acid linker, charged tail, C-terminal ssrA tag)
[2] = system: substrate protein S1 (single N-terminal Smt3 domain, 65-amino-acid charged flexible tail, C-terminal 11 amino acid ssrA tag)
[3] = system: substrate protein S2-148 (two Smt3 domains separated by an extended 148 amino acid linker, charged tail, C-terminal ssrA tag)

## covalently-linked trimer of an N-terminal truncated ClpX variant (ClpX-ΔN3)
[1]
  second ramping state vi, ionic current: This was followed by a ~8.5 pA state (FIG. 2C, vi) that closely resembled ramping state iii
  translocation events that included ramping state iii, number of events: Translocation events that included ramping state iii were observed 62 times for protein S2-35 (7.3 hours of experimentation) ... when ClpX and ATP were present. In the absence of ClpX/ATP, these ramping states were never observed for S2-35 (1.7 hours of experimentation)
[2]
  ClpX-dependent ionic current ramp (ramping state iii), average current: a progressive downward current ramp reaching an average of ~10 pA with a median duration of 4.3 seconds
  ClpX-dependent ionic current ramp (ramping state iii), median duration: a progressive downward current ramp reaching an average of ~10 pA with a median duration of 4.3 seconds
  ClpX-dependent ionic current ramp (ramping state iii), number of events: This current ramp was observed with protein S1 a total of 45 times over ~5.5 hours of experimentation when ClpX and ATP were present; in contrast, the ramp was never observed following state ii when ClpX and ATP were absent from the trans solution over ~2.3 hours of experimentation
[3]
  translocation events that included ramping state iii, number of events: Translocation events that included ramping state iii were observed ... 66 times for protein S2-148 (4.3 hours of experimentation), when ClpX and ATP were present. In the absence of ClpX/ATP, these ramping states were never observed ... for S2-148 (1.2 hours of experimentation)
